Experimental data reported in US20010041346A1, “METHOD FOR ASSAYING COMPOUNDS AFFECTING SMOOTH MUSCLE CONTRACTILE STATE” (priority 1999, published 2001).

Target: T1, cGK from human saphenous vein smooth muscle cell lysates (Homo sapiens, UniProt Q13976)
T1 construct: from tissue; host or cells: frozen human saphenous vein, homogenized
T1 sequence (Q13976 1-671): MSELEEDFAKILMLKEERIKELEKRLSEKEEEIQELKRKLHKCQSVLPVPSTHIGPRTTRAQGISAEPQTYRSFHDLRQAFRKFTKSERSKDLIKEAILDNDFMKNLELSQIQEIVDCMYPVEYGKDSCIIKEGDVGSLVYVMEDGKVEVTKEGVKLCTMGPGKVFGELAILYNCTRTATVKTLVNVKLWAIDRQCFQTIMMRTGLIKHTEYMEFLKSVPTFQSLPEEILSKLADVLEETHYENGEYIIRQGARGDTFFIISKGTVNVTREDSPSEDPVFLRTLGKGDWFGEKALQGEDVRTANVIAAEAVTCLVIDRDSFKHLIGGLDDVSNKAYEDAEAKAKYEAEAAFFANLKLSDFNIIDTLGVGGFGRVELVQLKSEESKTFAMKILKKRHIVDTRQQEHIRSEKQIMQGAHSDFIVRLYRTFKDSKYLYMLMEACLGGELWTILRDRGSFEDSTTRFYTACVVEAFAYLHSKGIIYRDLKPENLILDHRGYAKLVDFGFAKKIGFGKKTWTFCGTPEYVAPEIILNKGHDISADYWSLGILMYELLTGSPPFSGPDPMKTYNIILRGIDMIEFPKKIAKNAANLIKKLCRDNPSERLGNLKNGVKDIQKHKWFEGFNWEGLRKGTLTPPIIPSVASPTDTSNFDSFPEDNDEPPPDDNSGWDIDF
Assay: GST-fusion protein binding, immunoblot for cGK
Settings: GST pulldown, immunoblotting with anti-cGK antibody
Procedure: Lysates were centrifuged for 15 minutes at 4° C. in a microfuge, and the supernatant was incubated with 100 μl of GST or GST-fusion protein beads overnight, followed by washing in RIPA buffer containing 1% NP40, and boiling for 5 minutes in SDS sample buffer. Associated proteins were resolved by SDS-PAGE and transferred to nitrocellulose, which was blocked in PBS with 0.05% Tween 20 and 5% milk. Primary antibody incubation with rabbit polyclonal anti-human cGPK-CT (Upstate Biotechnology, Lake Placid, N.Y.) was carried out at 1:2000 dilution and rabbit polyclonal anti-MBS antibody (Berkeley Antibody Company, Richmond, Calif.) at 1:1600 dilution in blocking buffer for one hour at room temperature, followed by secondary antibody incubation with anti-rabbit horseradish peroxidase-conjugated IgG (Amersham Life Science, Arlington Heights, Ill.) at 1:500 in blocking buffer. The membranes were developed with ECL (Amersham Life Science, Arlington Heights, Ill.).
The 586 base pair cDNA insert from AL9, the 177 base pair N-terminal cGK1α truncation mutant, cGK1α1-59, the N-terminal 274 base pairs of cGKIβ, and the N-terminal 816 base pairs of cGKII were cloned into pGEX (Pharmacia Biotech, Piscataway, N.J.). GST fusion proteins were expressed in bacterial strain BL21 (Stratagene, La Jolla, Calif.) according to standard techniques. […]

binding of cGK from smooth muscle cell lysates: no interaction with cGK
B1: MBS1-690: 690 amino acid N-terminal half of MBS (protein, UniProt O14974 1-690, looked up, fragment)
chain: MKMADAKQKRNEQLKRWIGSETDLEPPVVKRQKTKVKFDDGAVFLAACSSGDTDEVLKLLHRGADINYANVDGLTALHQACIDDNVDMVKFLVENGANINQPDNEGWIPLHAAASCGYLDIAEFLIGQGAHVGAVNSEGDTPLDIAEEEAMEELLQNEVNRQGVDIEAARKEEERIMLRDARQWLNSGHINDVRHAKSGGTALHVAAAKGYTEVLKLLIQAGYDVNIKDYDGWTPLHAAAHWGKEEACRILVDNLCDMEMVNKVGQTAFDVADEDILGYLEELQKKQNLLHSEKRDKKSPLIESTANMDNNQSQKTFKNKETLIIEPEKNASRIESLEQEKVDEEEEGKKDESSCSSEEDEEDDSESEAETDKTKPLASVTNANTSSTQAAPVAVTTPTVSSGQATPTSPIKKFPTTATKISPKEEERKDESPATWRLGLRKTGSYGALAEITASKEGQKEKDTAGVTRSASSPRLSSSLDNKEKEKDSKGTRLAYVAPTIPRRLASTSDIEEKENRDSSSLRTSSSYTRRKWEDDLKKNSSVNEGSTYHKSCSFGRRQDDLISSSVPSTTSTPTVTSAAGLQKSLLSSTSTTTKITTGSSSAGTQSSTSNRLWAEDSTEKEKDSVPTAVTIPVAPTVVNAAASTTTLTTTTAGTVSSTTEVRERRRSYLTPVRDEESESQRKARSRQAR
